Assay results taken from paper PMC4352251, “The VieB auxiliary protein negatively regulates the VieSA signal transduction system in Vibrio cholerae” (BMC Microbiology, 2015).

Target: VieS-C (untagged cytoplasmic portion of the sensor kinase VieS) (UniProt O68317)
Assay: composition-gradient MALS (CG-MALS)

Substance: VieB D62E (His6 tag removed) (from UniProt O68319 1-553) (natural protein)
- Kd: 197 nM
- stoichiometry N (VieB D62E monomer per VieS-C dimer): 1
